Measured values as given in the supplement of paper PMC9170038.

The sequences below were run on K4 kissing-loop RNA reporter (assay: apparent KD of K4 kissing-loop reporter; higher = weaker reporter binding). Conditions: Eterna round: R107; input ligand: none.
Experimental: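 RNA-MaP round R107: designed RNA switches with theophylline, tryptophan, arginine or FMN aptamers are transcribed on-chip within common flanks. They are titrated with a labelled K4 kissing-loop RNA reporter in RNA-MaP buffer (100 mM Tris pH 7.5, 80 mM KCl, 4 mM MgCl2), without ligand or with the indicated ligand. Median apparent KD per design.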
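Note: bound reporter read as fluorescence of individual clusters on recovered sequencing chips by microscopy, with normalized cluster intensities fitted with a binding model.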

Sequence	apparent KD of K4 kissing-loop reporter [nM]
GGACUCAAAUGUAGUGAUGUUACAAGCGAUACCAGUAUCUAACAUUACCCUUGGCAGCGCGCCCAGCUCAGCAAAUUAGAUAGCG [theeternabot_sameState_KL_Theo_A_43]	178
CGCAGUGAUGUUGCGAGUAACUACAGGGAAGGAGCGUGCUAAAGCACAGGUAGGUCGCCCAUGCAGUGAUGUUGUGUAAAAGGGU [Excluson Arginine A GF 13]	106
AACCGUGUGGCGGCCGCCACUAGUCUCCAGUGAUGUUGGAGAGACCACGUAAGUGGUCUCCGACAUAGGACCGGGCCAUAUGGAA [Same State - Tryptophan B (Freestyle 25)]	361
UGAUAGGACAGAAGGAGCGGAAUGCUGUCCAAAAGGACAGCAAAUAUAACAGGAGUGAUGUUCCAGGUAGGUCGCUGUCCUAUCU [ArgBX 21 #SwitchBubble #StaticStem]	214
AAUCAAUACAGAAGGAGCGUGACAAUUACUAUUGAAUUAGGUGCUAGUGAUGUUAGCAUUACACAGGUAGGUCGCUGUACAUUUA [JR_SSArginiB_Sub011]	87.5
CGGCUUAGUAGCGCGAGUUGACGUGCCAUCCGAGGACCGGUACGGCCGCCACUCGUGAUCUGUUAAAGUGAUGUUUUAAUGCCAU	712
AUUAAUUUCAGAGGAUAUGCUUAAUUGAUUUAUUAUUAUCUAUUAUGCAGUGAUGUUGCAUAUUUUGCAGAAGGCUGAUUUAUAA [JR_SSFMNB_Sub018]	140
GGAUAGGAUAGAGGAUAUGGUUUAUGCAGGAAUAACUUAUUGUGUAAAUCCAUAGGGAGUGAUGUUCCAGAAGGCUGUCCUAUCG [MatMod 14 - Jieux - Exclusion - FMN B]	230
AGACGCCAGUCGGCCGCCACUCACAGCAGUGAUGUUGCUGAAAAUCUAGAAGAGUGAUGUUCUUAGAGGACCGGGACUCCAGUCG [Same State Tryptophan B GF 6]	169
UGUCUGAUGGAAACAUCGGACUUUACUGAUACCAGUAUCGAUAGAUACCCUUGGCAGCAGAAUCAGUAAUAACGAGUGAUGUUCG [Ex Theophylline A K4 3]	386
UGAUACCAGACUGAUACCAGCUAGUGAUGUUAGCUGAUCUAAGGACCGUCAAAGACGGCUAGCCCUUGGCAGCAGUCUGGUAUCU [TheoBX 13 #SwitchBubble #StaticStem]	121
UGGACCUGACUCGAUAAGAGUCAAUGGGAUACCAGCCACGAAAGUGGCCCUUGGCAGCUCUACCAGUGAUGUUGGUCAAGGUCCU [#SwitchBubble 8 #StaticStem]	860
UGUGGAGGAUAUGAUACCAGCAGUGAGAGAGAGGAAGUAUAGUGAUGUUAUAUGAGAGAAUGCCCUUGGCAGCGUGUGUAGUAGG [SSTheophylB.J]	200
CGUUUAUAGCAGGAUACCAGUACCCAUUAUGUACGUUUAUAGUAGAGUGAUGUUCUAAAGUACCCUUGGCAGCUUCCUGUGACCC [ExTheophylB.Aa]	181
UUCUUGAUGGAAACAUCGAGGAUUACUGAUACCAGUAUCGAUAGAUACCCUUGGCAGCAGAAUCAGUGAUCACGAGUGAUGUUCG [Ex Theophylline A K4 10]	733
AACACCCGCUAUGAUACCAGUGAAGUGAUGUUUUACUCCGGGCGUAAGACAAAGGUCAGCCACCCUUGGCAGCAUAUCCGCGUAU [theeternabot_exclusion_KL_Theo_B_35]	594

Same assay, conditions: Eterna round: R107; input ligand: theophylline 20 uM

Sequence	apparent KD of K4 kissing-loop reporter [nM]
ACGGAUUCGAAUACCGAAUGAAAUAGGGAUACCAGCACGUGAACGUGCCCUUGGCAGCCCAGCCCAGUGAUGUUGGGCCCAUGGC [Biso]	212
GGGAGUAGUGCGGCCGCCACUGUGAAAGUAGAAGAAUAUAGUGAUGUUAUAUAGGAUUAAAAGAAUAGGACCGGGCAUUAGAUUU [SSTRyptB.W]	186
AAUUCAAACUGAAGGAGCGAGCAAAUCGGAGUGAUGUUCCAAGCGAGUGAUGUUCGCAUAGCUCAGGUAGGUCGCAGUUUGGAUA [Same State Arginie B GF 13]	101
UGAUACCAGACGGCCGCCACUUCUGCAAGUCAAAGACUUGCUAAGGGAAUCGUCCAGUGAUGUUGGAGGACCGGGUCUGGUAUCU [FiskerMod 2 - Jieux - Exclusion - Tryptophan B]	999
UGAUACCAGACGGCCGCCACUAGGACCGGGAGUGAUGUUCCCAAUUUAAAAUGCUCGGCCGCCACUAGGACCGGGUCUGGUAUCU [TrypBX 27 #DoubleAptamer #SwitchBubble]	305
UGACUGGACUGAAGGAGCGUUGAAGGAGCGUAGGCAGUGAUGUUGCCUACAGGUAGGUCGCAGCAGGUAGGUCGCAGUCUAGUCU [ArgBS 27 #DoubleAptamer #SwitchBubble]	66.1
AAAGAUCUUCUAGAAACUAGAAGAUCAAGAGAGGAUAUCCGAAUUCGGAGAAGGCUCACUAAGUGAUGUUUGGAGCCAAUGGCAA [AK2 SS FMN A]	1090
GCAUCCAUGGCAGGAUAUAGGUUCAUGGAGUGAUGUUCCAUAACCCGAGUGAUGUUCGUUAUCCACCUAGAAGGGCCAUGGAUGC	196
UGUCAUUGGUCGGCCGCCACUAGGACCGGGUUUUACCUAGUGAUGUUAGUAUGAACGGCCGCCACUAGGACCGGGACCGAUGACU [KL-SSTryp-B25 #DoubleAptamer]	442
UGGAGGAGUGAUGUUCCCGAAACAUGAGAUACCAGCGUCACAGUCCGCCCUUGGCAGCUCGGUCCAAUUUGCCUCGCGGGUAAUG [theeternabot_sameState_KL_Theo_A_23]	257
UUGGUUGUCGUAGGAUAUGUAGGAUAUUCUAAAAUAUGAAGUGAUGUUUCUAUAAUAAGAAGAAGGACAGAAGGACGAUAACCAU [FmnBS 2 - Salish transfer #DoubleAptamer]	103
CCUAUCUCAUACGAUACCAGUCCGAGUGAUGUUCGAACAGGUUUUAGUUUGCCAUAUAAUGACCCUUGGCAGCGUAUGGGAUAGG [Ex Theophylline B K4 13]	130
CGCAGUGAUGUUGCGAGUAGCUACAGGGAAGGAGCGUGCUAGAGCACAGGUAGGUCGCCCAGUGGCAGUGAUGUUGCCAACGGGU [Exclusion ARginine A GF 18]	104
CCAUUCUUUUACGAUACCAGUUUUAUUUAGUUAUUCAUAACCCUUGCCGAGUGAUGUUCGGACCCUUGGCAGCGUUUGCGAGAGG [zaadvmullin]	411
AAACGCUGGAUGAAUAACAUCUAGCGAAUUCGAGGACCGGUACGGCCGCCACUCGAGCUAACUGCGAGUGAUGUUCGAUAAUAAA [Mat - Mod of OpenEnded 3 - D1]	524
GGACUCAAAUGUAGUGAUGUUACAAGCGAUACCAGUAUCUAACAUUACCCUUGGCAGCGCGCCCAGCUCAGCAAAUUAGAUAGCG [theeternabot_sameState_KL_Theo_A_43]	268
CGCAGUGAUGUUGCGAGUAACUACAGGGAAGGAGCGUGCUAAAGCACAGGUAGGUCGCCCAUGCAGUGAUGUUGUGUAAAAGGGU [Excluson Arginine A GF 13]	118
AACCGUGUGGCGGCCGCCACUAGUCUCCAGUGAUGUUGGAGAGACCACGUAAGUGGUCUCCGACAUAGGACCGGGCCAUAUGGAA [Same State - Tryptophan B (Freestyle 25)]	531
UGAUAGGACAGAAGGAGCGGAAUGCUGUCCAAAAGGACAGCAAAUAUAACAGGAGUGAUGUUCCAGGUAGGUCGCUGUCCUAUCU [ArgBX 21 #SwitchBubble #StaticStem]	199
AAUCAAUACAGAAGGAGCGUGACAAUUACUAUUGAAUUAGGUGCUAGUGAUGUUAGCAUUACACAGGUAGGUCGCUGUACAUUUA [JR_SSArginiB_Sub011]	89
CGGCUUAGUAGCGCGAGUUGACGUGCCAUCCGAGGACCGGUACGGCCGCCACUCGUGAUCUGUUAAAGUGAUGUUUUAAUGCCAU	711
AUUAAUUUCAGAGGAUAUGCUUAAUUGAUUUAUUAUUAUCUAUUAUGCAGUGAUGUUGCAUAUUUUGCAGAAGGCUGAUUUAUAA [JR_SSFMNB_Sub018]	156
GGAUAGGAUAGAGGAUAUGGUUUAUGCAGGAAUAACUUAUUGUGUAAAUCCAUAGGGAGUGAUGUUCCAGAAGGCUGUCCUAUCG [MatMod 14 - Jieux - Exclusion - FMN B]	249
